Test results as given in publication PMC7738170.

Experiments:
[1] = target: T1, 6xHis-DnaA (Mtb) (Mycobacterium tuberculosis) (UniProt P9WNW3); assay: EMSA
T1 sequence: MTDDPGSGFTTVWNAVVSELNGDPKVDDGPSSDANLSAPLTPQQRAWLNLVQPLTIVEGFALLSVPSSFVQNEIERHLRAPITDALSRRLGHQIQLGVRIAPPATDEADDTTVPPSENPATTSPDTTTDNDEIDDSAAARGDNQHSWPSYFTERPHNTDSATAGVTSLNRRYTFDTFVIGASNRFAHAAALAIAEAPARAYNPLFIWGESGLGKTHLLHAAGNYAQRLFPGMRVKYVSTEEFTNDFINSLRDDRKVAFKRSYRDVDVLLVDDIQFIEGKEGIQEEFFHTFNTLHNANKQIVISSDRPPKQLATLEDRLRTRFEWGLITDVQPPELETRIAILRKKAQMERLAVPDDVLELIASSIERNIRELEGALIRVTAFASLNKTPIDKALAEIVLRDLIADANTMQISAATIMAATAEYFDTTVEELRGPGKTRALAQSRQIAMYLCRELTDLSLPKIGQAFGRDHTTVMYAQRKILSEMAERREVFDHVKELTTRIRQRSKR

[2] = tested on: 6xHis-DnaA (Mtb) (Mycobacterium tuberculosis); assay: EMSA

Substance	binding [1]	Kd [2]
CCCTACACGACGCTCTTCCGACCCTCTCACCACTGCAGACAAAGTTATCCACAGACGCTATCAACAGTGGGGATGAATCACATGCGTGTGATTGAGTGACCAAAAGGTTGCTGGCACAGTAACGACCCGACCAGAATATGAATTCATTCTATCGGCGGCG (double strand) [Rv0010c-Rv0011c intergenic fragment]	binds	–
oriC fragment	–	70 nM
